According to publication PMC2367712 (Nucleic Acids Research, 2008):

Molecular target: the molecule itself
Test: cross-linking

B1: Lsr2 of M. tuberculosis, recombinant, His-tagged at the C-terminal (natural protein)
chain: not shown
Which “stoichiometry N” value does the source give for B1 here?
The value was 2.
